From patent US20180312587A1 (ADURO BIOTECH HOLDINGS EUROPE B V, published 2018)
Values belong to the binder of their own block, whether it stands above or below them.

Assays:
human SIRPα variant 1 [1] = target: T1, human SIRPα variant 1 (human, UniProt P78324 31-504); assay: CELISA, CHO-K1 transfectants
T1 construct: full length ORF on transfected CHO-K1 or HEK293 cells; entry includes the signal peptide; also called hSIRPαV1; SIRPαV1
Protocol: (§1) The specificity of monoclonal anti-hSIRPα antibodies (e.g., including the hSIRPα antibodies known in the art, KWAR23 (U.S. Patent CA2939293 A1), 18D5 (Patent WO2017/178653 A2), and various commercially available hSIRPα antibodies) for binding to hSIRPαV1, hSIRPαV1(P74A), and hSIRPβ1 was evaluated by CELISA. Reactivity was confirmed using CHO-K1 cells (ATCC CCL-61) expressing a cDNA encoding the full length open reading frame of hSIRPαV1, hSIRPαV1(P74A), and hSIRPβ1 subcloned into the pCI-neo vector (Promega, Madison, Wis.). CHO-K1.hSIRPαV1, CHO-K1.hSIRPαV1(P74A), and CHO-K1.hSIRPβ1 cells were seeded in culture medium (DMEM-F12 (Gibco) supplemented with 5% New Born Calf Serum (BioWest) and Pen/Strep (Gibco)) in 96-well flat-bottom tissue culture plates and incubated at 37° C., 5% CO₂ and 95% humidity for 24 hours. Subsequently, culture medium was removed and cells were incubated for 1 hour at 37° C., 5% CO₂ and 95% humidity with purified hSIRPα antibodies (used at 10 μg/ml and dilutions thereof). Next, cells were washed with PBS-T and incubated for 1 hour at 37° C., 5% CO₂ and 95% humidity with either goat-anti-mouse IgG-HRP (Southern Biotech), goat-anti-human IgG-HRP (Jackson Immuno Research), or goat-anti-rabbit IgG-HRP (Southern Biotech). Subsequently, cells were washed three times with PBS-T and immunoreactivity against hSIRPαV1, hSIRPαV1(P74A), and hSIRPβ1 was visualized with TMB Stabilized Chromogen (Invitrogen). Reactions were stopped with 0.5 M H₂SO₄ and absorbances were read at 450 and 610 nm.
Target sequence in this assay (P78324 31-504 limits assumed, change not shown): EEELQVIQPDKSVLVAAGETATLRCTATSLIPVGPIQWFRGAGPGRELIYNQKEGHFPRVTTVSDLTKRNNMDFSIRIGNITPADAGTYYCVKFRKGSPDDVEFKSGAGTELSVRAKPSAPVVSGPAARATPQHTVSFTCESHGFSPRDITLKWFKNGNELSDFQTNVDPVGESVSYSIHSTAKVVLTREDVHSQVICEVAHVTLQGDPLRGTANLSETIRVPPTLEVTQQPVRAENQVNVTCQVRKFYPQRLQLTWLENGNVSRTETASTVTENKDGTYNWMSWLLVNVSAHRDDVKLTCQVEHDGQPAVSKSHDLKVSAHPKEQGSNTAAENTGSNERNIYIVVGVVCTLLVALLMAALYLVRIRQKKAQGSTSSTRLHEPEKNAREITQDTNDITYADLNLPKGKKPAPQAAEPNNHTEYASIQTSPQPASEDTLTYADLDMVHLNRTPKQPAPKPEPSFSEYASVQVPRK

human SIRPα variant 2 [2] = target: T2, human SIRPα variant 2 (human, UniProt P78324 31-504); assay: CELISA, CHO-K1 transfectants
T2 construct: full length ORF on transfected CHO-K1 cells; also called hSIRPαV2; SIRPαV2
T2 sequence (P78324 other isoform, or with tags, fused parts or gaps mutant limits assumed): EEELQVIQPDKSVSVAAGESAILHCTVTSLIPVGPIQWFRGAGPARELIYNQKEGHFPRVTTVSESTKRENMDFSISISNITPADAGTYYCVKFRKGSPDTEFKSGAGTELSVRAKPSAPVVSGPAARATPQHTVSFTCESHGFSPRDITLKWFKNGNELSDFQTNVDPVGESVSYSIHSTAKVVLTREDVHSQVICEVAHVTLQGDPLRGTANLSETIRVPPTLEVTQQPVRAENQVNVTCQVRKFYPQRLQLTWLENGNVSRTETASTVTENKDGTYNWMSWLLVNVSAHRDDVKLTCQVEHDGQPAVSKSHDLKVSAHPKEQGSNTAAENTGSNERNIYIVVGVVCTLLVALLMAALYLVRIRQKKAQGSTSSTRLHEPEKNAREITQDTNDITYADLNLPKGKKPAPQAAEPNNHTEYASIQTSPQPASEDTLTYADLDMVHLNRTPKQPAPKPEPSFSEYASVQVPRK
Protocol: as §1, with “Reactivity” for “The specificity of monoclonal anti-hSIRPα antibodies (e.g., including the hSIRPα antibodies known in the art, KWAR23 (U.S. Patent CA2939293 A1), 18D5 (Patent WO2017/178653 A2), and various commercially available hSIRPα antibodies) for binding to hSIRPαV1, hSIRPαV1(P74A), and hSIRPβ1 was evaluated by CELISA. Reactivity”, “hSIRPαV1(P74A), hSIRPαV2,” for “hSIRPαV1(P74A),”, “CHO-K1.hSIRPαV1(P74A), CHO-K1.hSIRPαV2,” for “CHO-K1.hSIRPαV1(P74A),”, “μg/mL” for “μg/ml”, “with” for “with either”, “goat-anti-mouse” for “goat-anti-mouse IgG-HRP (Southern Biotech), goat-anti-human IgG-HRP (Jackson Immuno Research), or goat-anti-rabbit”

human SIRPα variant 1 [3] = target: T1, human SIRPα variant 1; assay: CELISA, CHO-K1 transfectants; remark: listed apart in the source
Protocol: as §1, with “Reactivity” for “The specificity of monoclonal anti-hSIRPα antibodies (e.g., including the hSIRPα antibodies known in the art, KWAR23 (U.S. Patent CA2939293 A1), 18D5 (Patent WO2017/178653 A2), and various commercially available hSIRPα antibodies) for binding to hSIRPαV1, hSIRPαV1(P74A), and hSIRPβ1 was evaluated by CELISA. Reactivity”, “hSIRPαV1(P74A), hSIRPαV2,” for “hSIRPαV1(P74A),”, “CHO-K1.hSIRPαV1(P74A), CHO-K1.hSIRPαV2,” for “CHO-K1.hSIRPαV1(P74A),”, “μg/mL” for “μg/ml”, “with” for “with either”, “goat-anti-mouse” for “goat-anti-mouse IgG-HRP (Southern Biotech), goat-anti-human IgG-HRP (Jackson Immuno Research), or goat-anti-rabbit”
Target sequence in this assay (P78324 31-504 limits assumed, change not shown): as the sequence (P78324 31-504 limits assumed, change not shown) above

human SIRPα variant 2 [4] = target: T2, human SIRPα variant 2; assay: CELISA, CHO-K1 transfectants; average of two experiments
Protocol: (§2) The binding specificity of antibody hSIRPα.50A to hSIRPα was compared antibody KWAR23 (Canadian Patent 2939293 A1), in a CELISA format. CHO-K1 cells were transiently transfected with hSIRPαV1, hSIRPαV2, hSIRPβ1, and hSIRPγ (GenBank accession: NM_018556.3) (SEQ ID NO: 39) cDNAs. Subsequently, hSIRPα binding was assessed by CELISA using CHO-K1.hSIRPαV1, CHO-K1.hSIRPαV2, CHO-K1.hSIRPβ1, and CHO-K1.hSIRPγ cells. Detection of bound antibody was performed with goat-anti-mouse IgG-HRP (Southern Biotech) for mouse antibodies including hSIRPα.50A and control antibodies or, alternatively, with goat-anti-human IgG-HRP conjugate (Jackson Immuno Research) for the KWAR23 antibody. KWAR23 (SEQ ID NO: 130; SEQ ID NO: 131) was expressed as a chimeric human IgG4 kappa antibody in CHO cells. As shown in FIG. 2 and the following Table 9, KWAR23 antibody cross-reacts with all members of the SIRP receptor family tested: it binds to hSIRPαV1, hSIRPαV2, hSIRPβ1, and hSIRPγ.

human SIRPγ = target: T3, human SIRPγ (human, UniProt Q9P1W8 29-387); assay: as above
T3 construct: on transfected CHO-K1 cells; also called hSIRPγ
T3 sequence (Q9P1W8 29-387 limits assumed): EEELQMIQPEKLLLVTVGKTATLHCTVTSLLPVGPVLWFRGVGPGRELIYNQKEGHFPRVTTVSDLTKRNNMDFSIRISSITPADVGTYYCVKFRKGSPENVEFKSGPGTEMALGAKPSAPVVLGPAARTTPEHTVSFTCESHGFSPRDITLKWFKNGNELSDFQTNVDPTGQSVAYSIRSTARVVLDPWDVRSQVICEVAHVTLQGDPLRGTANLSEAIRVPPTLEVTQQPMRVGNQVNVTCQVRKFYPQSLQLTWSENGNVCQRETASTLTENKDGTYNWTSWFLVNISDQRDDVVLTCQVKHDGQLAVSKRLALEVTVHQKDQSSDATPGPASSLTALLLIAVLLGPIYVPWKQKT
Protocol: as §2

human SIRPα variant 1 [5] = target: T1, human SIRPα variant 1; assay: as above
Protocol: as §2

- EC50 (human SIRPα variant 1 [1]): 0.053 nM
- EC50 (human SIRPα variant 2 [2]): 0.093 nM
- EC50 (human SIRPα variant 1 [3]): 0.114 nM
B1: hSIRPα.40A (antibody, mouse IgG1, kappa, V domains shown)
VH: EVQFQQSGTVLARPGTSVKMSCKASGSTFTSYWMHWVKQGPGQGLQWIGAIYPVNNDTTYNQKFKGKAELTVVTSTSTAYMEVSSLTNEDSAVYYCTRSFYYSLDAAWFVYWGQGTLVTVSA
VL: DIQMTQSPSSLSASLGERVSLTCRASQDIGSRLNWLQQEPDGTIKRLIYATSSLDSGVPKRFSGSRSGSDYSLTISGLESEDFVDYYCLQYASSPFTFGGGTKLEINR
notes: mouse antibody, full chains without signal peptide; also called mouse hSIRPα.40A

- EC50 (human SIRPα variant 1 [1]): 0.307 nM
- EC50 (human SIRPα variant 2 [2]): 0.645 nM
- EC50 (human SIRPα variant 1 [3]): 0.773 nM
- EC50 (human SIRPα variant 2 [4]): 1.3 nM
- EC50 (human SIRPγ): 1.25 nM
- EC50 (human SIRPα variant 1 [5]): 1.36 nM
B2: hSIRPα.50A (antibody, V domains shown)
VH: QVQLQQSGPELVKPGASVRISCKASGFTFTNYYIHWVKQRPGQGLEWIGWIYPGNVNTKYNEKFKAKATLTADKSSTTAYMQLSSLASEDSAVYFCARPTIIATDFDVWGAGTTVTVSS
VL: DIVMTQSHKFMSTSVGDRVNITCKASQGVGTAVGWYQQKPGQSPRLLIYWASTRHTGVPDRFTGSGSGTDFSLAISNVQSEDLADYFCQQYSTYPFTFGGGTNLEIK
notes: light chain constant domain not tied; also called mouse hSIRPα.50A; hSIRPα.50A.mIgG1

- EC50 (human SIRPα variant 1 [1]): 0.135 nM
- EC50 (human SIRPα variant 2 [2]): 0.049 nM
- EC50 (human SIRPα variant 1 [3]): 0.07 nM
- EC50 (human SIRPα variant 2 [4]): 0.051 nM
- EC50 (human SIRPγ): 0.04 nM
- EC50 (human SIRPα variant 1 [5]): 0.081 nM
B3: KWAR23 (antibody, V domains shown)
VH: EVQLQQSGAELVKPGASVKLSCTASGFNIKDYYIHWVQQRTEQGLEWIGRIDPEDGETKYAPKFQDKATITADTSSNTAYLHLSSLTSEDTAVYYCARWGAYWGQGTLVTVSS
VL: QIVLTQSPAIMSASPGEKVTLTCSASSSVSSSYLYWYQQKPGSSPKLWIYSTSNLASGVPARFSGSGSGTSYSLTISSMEAEDAASYFCHQWSSYPRTFGAGTKLELK
